In the series the test system is NCCC[C@H](N)C(=O)O. In words: cells, lysate or membranes. To be noted: other: direct uptake into LLCPK-TREx-hCAT1 cells.

hCAT1 (Homo sapiens), sequence (chain, as listed by the source): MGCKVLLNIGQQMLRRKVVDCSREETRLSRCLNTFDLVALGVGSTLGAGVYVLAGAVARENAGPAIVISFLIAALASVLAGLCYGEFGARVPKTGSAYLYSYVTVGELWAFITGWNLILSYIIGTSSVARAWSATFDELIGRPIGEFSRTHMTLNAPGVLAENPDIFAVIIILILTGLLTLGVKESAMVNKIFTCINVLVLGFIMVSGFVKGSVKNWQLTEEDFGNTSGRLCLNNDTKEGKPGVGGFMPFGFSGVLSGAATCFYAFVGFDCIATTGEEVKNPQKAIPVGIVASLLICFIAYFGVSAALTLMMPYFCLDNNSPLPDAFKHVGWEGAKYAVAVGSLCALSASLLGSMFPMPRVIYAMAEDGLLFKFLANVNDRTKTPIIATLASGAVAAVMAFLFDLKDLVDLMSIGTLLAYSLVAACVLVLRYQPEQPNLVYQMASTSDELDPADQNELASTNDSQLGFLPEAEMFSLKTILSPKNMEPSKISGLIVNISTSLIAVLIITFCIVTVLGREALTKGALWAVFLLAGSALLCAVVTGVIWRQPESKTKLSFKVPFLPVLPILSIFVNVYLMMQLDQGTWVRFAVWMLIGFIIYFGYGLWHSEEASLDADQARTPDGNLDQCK

Consider hCAT1 (Homo sapiens), for which the Km came out at 200 µM. For the same substance, where the note is “5 minutes at room temperature, specific uptake (+TET minus no TET)”, the Km amounted to 184 µM.

For the origin of these results see patent publication US7670782B2, “Screening of compounds for CAT1 transporter activity” (XenoPort, Inc., priority 2005, dated 2010).
